Here are results for 2 proteins from publication PMC5507626 (Structure (London, England : 1993), 2017).

Numbering of substitutions follows the chain as printed. Numbers in names are those of the source.

Data set [1] deals with the molecule itself. Nature of the data set: crystal structure.
Data set [2] concerns the molecule itself. Nature of the data set: SEC. Background: SEC sorts molecules by how far they enter the pores of the column.

B1: TPR(2-142) F113M (domain or fragment, human, UniProt P12270 2-142, looked up)
chain: AAVLQQVLERTELNKLPKSVQNKLEKFLADQQSEIDGLKGRHEKFKVESEQQYFEIEKRLSHSQERLVNETRECQSLRLELEKLNNQLKALTEKNKELEIAQDRNIAIQSQMTRTKEELEAEKRDLIRTNERLSQELEYLT
modifications: selenomethionine (SeMet construct)
For orientation: stoichiometry N means a count of units in the complex or per binding partner. On to B1, for which the “stoichiometry N” value in data set [1] is 4.

B2: TPR(2-142) F55M/F113M (domain or fragment, human, UniProt P12270 2-142, looked up)
chain: B1 chain with F54M
modifications: selenomethionine (SeMet construct)
Turning to B2, the figures for the “stoichiometry N” value in data set [2] and in data set [1] were 4 and 2, respectively.
